This is an account of results in patent US20260069656A1, “Nutritive Polypeptides and Formulations Thereof, and Methods of Production and Use Thereof” (Axcella Health Inc., priority 2013, published 2026).

Data set [1] in a line: Pancreatin-based in vitro digestion, free amino acids by RP-HPLC.
Protocol: In this method, pancreatin, a mixture of enzymes, is used to simulate intestinal proteases. Specifically, the digestion of polypeptides into amino acids was analyzed by an in vitro Pancreatin-based digestion assay followed by free amino acid analysis using reversed phase HPLC (RP-HPLC). The nutritive polypeptide was added to SGF (0.92 g/L Pepsin (Sigma), 0.03 M NaCl titrated with HCl to pH 1.5) at a final concentration of 4 g/L and incubated at 37° C. for 120 min. After 120 min, Na2CO3 was added to a final concentration of 16 mM to quench the pepsin reaction. […] Time points were sampled from the reaction and quenched by heating to 95° C. for 5 min. Control samples were protease-free.
Analyses were performed using an Agilent 1100 series system. Primary amino acids were derivitized pre-column at room temperature, online, using o-phthalaldehyde (OPA). The OPA-derivatives were separated using the Zorbax Eclipse-AAA 4.6×150 mm, 3.5 μm column at 40° C. The separation gradient transitioned from 100% 40 mM Na2HPO4 pH 7.8 to 65% acetonitrile/methanol/water mixture (45/45/10) over 23 minutes. Analytes were detected by fluorescence at 340 nm Ex/450 nm Em.
Data set [2] in a line: Solubility of proteins (lyophilized/reconstituted or ultrafiltered). As to conditions: produced in E. coli unless otherwise noted.
For data set [3] the following is noted: simulated gi fluid, pH 1.5.
The conditions of data set [4]: rat, in vivo, po.
Protocol: (§1) Rat pharmacokinetic studies. Male Sprague Dawley rats with indwelling jugular vein cannula (JVC) were purchased from Harlan Laboratories and acclimated to the Test Facility (Agilux Laboratories) for at least two days prior to study initiation. Prior to dose administration animals were fasted overnight (11-13 h) and remained fasted until completion of the study. Test articles were orally administered via a bulb-tipped 18 gauge stainless steel gavage needle attached to a syringe. The weight of all dose syringes were recorded prior to and following dosing to more accurately determine the amount of solution dosed. Serial blood samples (˜300 μL) were collected from the JVC at time 0 (pre-dose) and 0.25, 0.5, 1, 2, and 4 h post-dose. Blood samples were collected into tubes containing the anti-coagulant K2EDTA, a general protease inhibitor cocktail (Sigma P8340, diluted 1:100 in whole blood), and a DPP IV inhibitor (Millipore DPP4, diluted 1:100 in whole blood). Immediately following blood collection tubes were vortexed and stored on wet ice until processing to plasma by centrifugation (3,500 rpm at 5° C.) within 1 h of collection. Plasma samples were then transferred into new tubes and stored at −80° C.
(§2) The concentration of Glu, Ser, His, Gly, Thr, Arg, Ala, Tyr, Val, Met, Phe, Ile, Leu, and Lys in the plasma samples was determined by HPLC amino acid analysis, as described herein. Prior to HPLC amino acid analysis, insoluble particles were removed from plasma samples by centrifugation (1100×g at 4° C.) for 10 min. A 25 μL sample of the soluble fraction was then transferred to a 96-well plate, for some samples an internal standard (Norvaline, Agilent) was added to each plasma sample at final concentration of 0.5 mM.
The nature of data set [5]: Oral pharmacokinetics in humans, plasma amino acid concentrations. Further details: species or system human. Particulars: in vivo. Here is the method: The anabolic response to protein ingestion is predicated on the delivery of essential amino acids. The purpose of this study was to examine the changes in plasma amino acid concentrations in response to various proteins over a period of 240 minutes. […] Subjects were fasted overnight (>8 hrs) before oral pharmacokinetic study. […] Plasma amino acid concentrations were quantified by Quest Diagnostics or Laboratory Corporation of America. […] FIGS. 64-67 show the plasma time course of each measured amino acid and the aggregate groups, essential amino acids (EAA), branched chain amino acids (BCAA), and total amino acids (TAA), for WPI and SEQID-105. […] Subjects were fasted overnight (>8 hrs) before oral pharmacokinetic study. […] Plasma amino acid concentrations were quantified by Quest Diagnostics or Laboratory Corporation of America. The purpose of this study was to examine the changes in plasma amino acid concentrations in response to a methionine deficient nutritive protein over a period of 240 minutes. […] Plasma amino acid concentrations were quantified by Quest Diagnostics or Laboratory Corporation of America.

Data set [6] is described as follows: Intact half-life during simulated gastric fluid (SGF) digestion.
Data set [7] is described as follows: Rat pharmacokinetic studies, plasma amino acids by HPLC. As to conditions: oral administration to rats, doses of Table E33A.
Protocol: as §1, §2
The mark [8] stands for this setting: after 120 min SGF, Pancreatin SIF pH 6.5.
[9] abbreviates: SGF pH 1.5, pepsin:polypeptide 1:20 w/w, 37° C., produced in E. coli unless otherwise noted.

Where two headings read alike, the source gives them in different places.

B1: SEQID-00423: nutritive polypeptide (protein)
chain: VNGTLMQYFEWYTPNDGQHWKRLQNDAEHLSDIGITAVWIPPAYKGLSQSDNGYGPYDLYDLGEFQQKGTVRTKYGTKSELQDAIGSLHSRNVQVYGDVVLNHKAGADATEDVTAVEVNPANRNQETSEEYQIKAWTDFRFPGRGNTYSDFKWHWYHFDGADWDESRKISRIFKFRGEGKAWDWEVSSENGNYDYLMYADVDYDHPDVVAETKKWGIWYANELSLDGFRIDAAKHIKFSFLRDWVQAVRQATGKEMFTVAEYWQNNAGKLENYLNKTSFNQSVFDVPLHFNLQAASSQGGGYDMRRLLDGTVVSRHPEKAVTFVENHDTQPGQSLESTVQTWFKPLAYAFILTRESGYPQVFYGDMYGTKGTSPKEIPSLKDNIEPILKARKEYAYGPQHDYIDHPDVIGWTREGDSSAAKSGLAALITDGPGGSKRMYAGLKNAGETWYDITGNRSDTVKIGSDGWGEFHVNDGSVSIYVQK
modifications: Bacillus Amyloliquefaciens
The Solubility is the concentration that dissolves in the medium under given conditions. Higher therefore signals a readily soluble substance. As to B1, the “Free Leu (μM) at 120 min time point of Pancreatin digest” value (shortened to “Free Leu (μM) at 120 min time point”) in data set [1] (setting [8]) was 587.1 µM. In data set [2], the “Solubility” value worked out at 193 mg/mL.

B2: SEQID-00426: methionine deficient nutritive protein (protein, listed as Thermomyces lanuginosus)
chain: EVSQDLFNQFNLFAQYSAAAYCGKNNDAPAGTNITCTGNACPEVEKADATFLYSFEDSGVGDVTGFLALDNTNKLIVLSFRGSRSIENWIGNLNFDLKEINDICSGCRGHDGFTSSWRSVADTLRQKVEDAVREHPDYRVVFTGHSLGGALATVAGADLRGNGYDIDVFSYGAPRVGNRAFAEFLTVQTGGTLYRITHTNDIVPRLPPREFGYSHSSPEYWIKSGTLVPVTRNDIVKIEGIDATGGNNQPNIPDIPAHLWYFGLIGTCL
In the case of B2, the “SGF Half-life (t½)” value in data set [3] was 18 s. Also, in data set [4], the “change in AUC0-4 h for plasma Lys” value is “did not alter the change in AUC0-4 h for plasma Lys”. In data set [5], the “plasma EAA time course vs basal, Dunnett multiple comparison test” value is “plasma EAA levels at the 30 and 60 min. time points are significantly different from the basal levels at time 0 min”; the “plasma Methionine over time” value is “Methionine shows no significant change over time”; the “plasma amino acid levels across time, 1-way ANOVA” value was “significant differences across time for Glu and EAA”.

B3: SEQID-00429: nutritive polypeptide (protein, listed as Bacillus licheniformis)
chain: ANLKGTLMQYFEWYMPNDGQHWKRLQNDSAYLAEHGITAVWIPPAYKGTSQADVGYGAYDLYDLGEFHQKGTVRTKYGTKGELQSAIKSLHSRDINVYGDVVINHKGGADATEDVTAVEVDPADRNRVISGEHRIKAWTHFHFPGRGSTYSDFKWHWYHFDGTDWDESRKLNRIYKFQGKAWDWEVSNENGNYDYLMYADIDYDHPDVAAEIKRWGTWYANELQLDGFRLDAVKHIKFSFLRDWVNHVREKTGKEMFTVAEYWQNDLGALENYLNKTNFNHSVFDVPLHYQFHAASTQGGGYDMRKLLNGTVVSKHPLKAVTFVDNHDTQPGQSLESTVQTWFKPLAYAFILTRESGYPQVFYGDMYGTKGDSQREIPALKHKIEPILKARKQYAYGAQHDYFDHHDIVGWTREGDSSVANSGLAALITDGPGGAKRMYVGRQNAGETWHDITGNRSEPVVINSEGWGEFHVNGGSVSIYVQR
With B3, the “Free Leu (μM) at 120 min time point” value in data set [1] (setting [8]) worked out at 580.7 µM. In data set [6] (setting [9]), the “SGF Half-life (t½)” value was 300 s. Besides, the “Solubility” value in data set [2] was determined as 214 mg/mL.

B4: Heat-denatured SEQID-00363: SEQID-00363 diluted to 30 g/L in 10% PBS and rapidly heated to 95° C. (protein)
chain: ATLDSWLSNEATVARTAILNNIGADGAWVSGADSGIVVASPSTDNPDYFYTWTRDSGLVLKTLVDLFRNGDTSLLSTIENYISAQAIVQGISNPSGDLSSGAGLGEPKFNVDETAYTGSWGRPQRDGPALRATAMIGFGQWLLDNGYTSTATDIVWPLVRNDLSYVAQYWNQTGYDLWEEVNGSSFFTIAVQHRALVEGSAFATAVGSSCSWCDSQAPEILCYLQSFWTGSFILANFDSSRSGKDANTLLGSIHTFDPEAACDDSTFQPCSPRALANHKEVVDSFRSIYTLNDGLSDSEAVAVGRYPEDTYYNGNPWFLCTLAAAEQLYDALYQWDKQGSLEVTDVSLDFFKALYSDAATGTYSSSSSTYSSIVDAVKTFADGFVSIVETHAASNGSMSEQYDKSDGEQLSARDLTWSYAALLTANNRRNSVVPASWGETSASSVPGTCAATSAIGTYSSVTVTSWPSIVATGGTTTTATPTGSGSVTSTSKTTATASKTSTSTSSTSCTTPTAVAVTFDLTATTTYGENIYLVGSISQLGDWETSDGIALSADKYTSSDPLWYVTVTLPAGESFEYKFIRIESDDSVEWESDPNREYTVPQACGTSTATVTDTWR
modifications: heat-denatured; Aspergillus niger
With B4, the “Free Leu (μM) at 120 min time point” value in data set [1] (native and modified SEQID-00363) came to 763.5 µM. Besides, the “SGF Half-life (t½)” value in data set [6] (native and modified SEQID-00363, gel electrophoresis) is 1220 s.

B5: SEQID-00341: nutritive polypeptide (protein, listed as Saccharomyces cerevisiae)
chain: MSTSREDSVYLAKLAEQAERYEEMVENMKTVASSGQELSVEERNLLSVAYKNVIGARRASWRIVSSIEQKEESKEKSEHQVELICSYRSKIETELTKISDDILSVLDSHLIPSATTGESKVFYYKMKGDYHRYLAEFSSGDAREKATNASLEAYKTASEIATTELPPTHPIRLGLALNFSVFYYEIQNSPDKACHLAKQAFDDAIAELDTLSEESYKDSTLIMQLLRDNLTLWTSDMSESGQAEDQQQQQQHQQQQPPAAAEGEAPK
modifications: strain ATCC 204508 / S288c
As to B5, the “Free Leu (μM) at 120 min time point” value in data set [1] (setting [8]) came to 1143.5 µM. Also, in data set [6] (setting [9]), the “SGF Half-life (t½)” value was 12 s. The “Solubility” value in data set [2] came to 166 mg/mL.

B6: SEQID-00352: nutritive polypeptide naturally produced in Corn, recombinantly expressed in E. coli (protein)
chain: MATKRSVGTLGEADLKGKKVFVRADLNVPLDDAQKITDDTRIRASVPTIKFLLEKGAKVILASHLGRPKGVTPKYSLKPLVPRLSELLGVEVVMANDCIGEEVEKLAAALPEGGVLLLENVRFYKEEEKNEPEFAKKLASVADLYVNDAFGTAHRAHASTEGVTKYLKPAVAGFLMQKELDYLVGAVANPKKPFAAIVGGSKVSTKIGVIESLLAKVDILILGGGMIYTFYKAQGYSVGKSLVEEDKLELATSLIEKAKAKGVSLLLPTDIVVADKFAADAESKIVPATAIPDDWMGLDVGPDATKTFDEALDTTKTVIWNGPMGVFEFQKFAAGTEAIAKKLAELTTTKGVTTIIGGGDSVAAVEKAGLADKMSHISTGGGASLELLEGKTLPGVLALDDA
modifications: Zea mays
As for B6, the “Free Leu (μM) at 120 min time point” value in data set [1] (setting [8]) turned out to be 906.1 µM. Also, the “SGF Half-life (t½)” value in data set [6] (setting [9]) is 12 s. Besides, in data set [7], the “change in AUC0-4 h for plasma Lys” value is “increased the change in AUC0-4 h for plasma Lys”. For the same molecule, in data set [2], the “Solubility” value was found to be 223 mg/mL.

B7: SEQID-00425: nutritive polypeptide (protein, listed as Kluyveromyces lactis)
chain: MSCLIPENLRNPKKVHENRLPTRAYYYDQDIFESLNGPWAFALFDAPLDAPDAKNLDWETAKKWSTISVPSHWELQEDWKYGKPIYTNVQYPIPIDIPNPPTVNPTGVYARTFELDSKSIESFEHRLRFEGVDNCYELYVNGQYVGFNKGSRNGAEFDIQKYVSEGENLVVVKVFKWSDSTYIEDQDQWWLSGIYRDVSLLKLPKKAHIEDVRVTTTFVDSQYQDAELSVKVDVQGSSYDHINFTLYEPEDGSKVYDASSLLNEENGNTTFSTKEFISFSTKKNEETAFKINVKAPEHWTAENPTLYKYQLDLIGSDGSVIQSIKHHVGFRQVELKDGNITVNGKDILFRGVNRHDHHPRFGRAVPLDFVVRDLILMKKFNINAVRNSHYPNHPKVYDLFDKLGFWVIDEADLETHGVQEPFNRHTNLEAEYPDTKNKLYDVNAHYLSDNPEYEVAYLDRASQLVLRDVNHPSIIIWSLGNEACYGRNHKAMYKLIKQLDPTRLVHYEGDLNALSADIFSFMYPTFEIMERWRKNHTDENGKFEKPLILCEYGHAMGNGPGSLKEYQELFYKEKFYQGGFIWEWANHGIEFEDVSTADGKLHKAYAYGGDFKEEVHDGVFIMDGLCNSEHNPTPGLVEYKKVIEPVHIKIAHGSVTITNKHDFITTDHLLFIDKDTGKTIDVPSLKPEESVTIPSDTTYVVAVLKDDAGVLKAGHEIAWGQAELPLKVPDFVTETAEKAAKINDGKRYVSVESSGLHFILDKLLGKIESLKVKGKEISSKFEGSSITFWRPPTNNDEPRDFKNWKKYNIDLMKQNIHGVSVEKGSNGSLAVVTVNSRISPVVFYYGFETVQKYTIFANKINLNTSMKLTGEYQPPDFPRVGYEFWLGDSYESFEWLGRGPGESYPDKKESQRFGLYDSKDVEEFVYDYPQENGNHTDTHFLNIKFEGAGKLSIFQKEKPFNFKISDEYGVDEAAHACDVKRYGRHYLRLDHAIHGVGSEACGPAVLDQYRLKAQDFNFEFDLAFE
In the case of B7, the “Free Leu (μM) at 120 min time point” value in data set [1] (setting [8]) worked out at 713.1 µM. Moreover, the “SGF Half-life (t½)” value in data set [6] (setting [9]) is 18 s. Besides, the “Solubility” value in data set [2] was determined as 190 mg/mL.
